According to PMC7515635:
Where “and” joins values, the source holds several entries; their conditions need not be identical. Equal values may be shown once.

Target: HIS6-GABARAP (human) (UniProt O95166)
Assay: native MS; proteins exchanged into ammonium acetate, nanoelectrospray, Synapt G2Si; C53 1-5 µM or IDR 2.5 µM with 5-20 µM ATG8A or GABARAP

Sequence of HIS6-GABARAP (human) (O95166 whole entry): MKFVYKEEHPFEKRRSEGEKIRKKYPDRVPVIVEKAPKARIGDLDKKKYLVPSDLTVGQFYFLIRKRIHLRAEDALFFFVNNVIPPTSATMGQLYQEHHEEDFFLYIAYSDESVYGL
Sequence of HIS6-HsC53 (Q96JB5 whole entry): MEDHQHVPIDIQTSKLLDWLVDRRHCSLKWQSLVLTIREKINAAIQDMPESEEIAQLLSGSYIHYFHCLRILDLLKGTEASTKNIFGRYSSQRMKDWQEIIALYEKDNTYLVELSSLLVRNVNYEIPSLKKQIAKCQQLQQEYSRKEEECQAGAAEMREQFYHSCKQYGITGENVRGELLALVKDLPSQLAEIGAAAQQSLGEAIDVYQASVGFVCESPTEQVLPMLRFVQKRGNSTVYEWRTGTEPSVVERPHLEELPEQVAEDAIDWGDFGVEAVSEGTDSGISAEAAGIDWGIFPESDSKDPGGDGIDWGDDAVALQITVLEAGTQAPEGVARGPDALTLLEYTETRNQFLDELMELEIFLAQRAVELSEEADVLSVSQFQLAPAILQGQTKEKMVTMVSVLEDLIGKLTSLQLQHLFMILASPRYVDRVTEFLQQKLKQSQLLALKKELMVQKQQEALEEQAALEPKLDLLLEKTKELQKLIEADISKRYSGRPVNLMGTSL

stoichiometry N (GABARAP per HsC53): 1 and 2
Substance: HIS6-HsC53 (from UniProt Q96JB5 1-506) (natural protein)
